Experimental data: patent US20100260668A1 (published 2010)

Assays:
HGF-His tag = target: T1, HGF-His tag (UniProt P14210 32-728); experiment: direct bind ELISA (C-term VD)
T1 construct: Bought antigen coated on the ELISA plate; not shown: His tag

VEGF 1-165 aa = target: T2, VEGF 1-165 aa (UniProt P15692 27-191); experiment: direct bind ELISA (N-term VD);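 note: ELISA screen of antibodies for binding to plate-immobilized target antigen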
T2 construct: Bought antigen coated on the ELISA plate
T2 sequence (P15692 other isoform, or with tags, fused parts or gaps limits assumed): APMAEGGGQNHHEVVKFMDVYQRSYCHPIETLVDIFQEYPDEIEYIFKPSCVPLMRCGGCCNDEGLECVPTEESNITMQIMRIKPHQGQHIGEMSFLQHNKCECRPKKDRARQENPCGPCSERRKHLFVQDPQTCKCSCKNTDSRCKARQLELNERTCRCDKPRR
Procedure: Enzyme Linked Immunosorbent Assays to screen for antibodies that bind a desired target antigen were performed as follows. […] Plates were washed four times with PBS containing 0.02% Tween 20. Plates were blocked by the addition of 300 μL/well blocking solution (non-fat dry milk powder, various retail suppliers, diluted to 2% in PBS) for ½ hour at room temperature. Plates were washed four times after blocking with PBS containing 0.02% Tween 20.
Alternatively, one hundred microliters per well of 10 μg/ml of Histidine (His) tagged desired target antigen (R&D Systems, Minneapolis, Minn.) was added to ELISA plates coated with monoclonal mouse anti-polyHistidine antibody as described above and incubated for 1 hour at room temperature. Wells were washed four times with PBS containing 0.02% Tween 20.
Plates were washed 4 times with PBS containing 0.02% Tween 20.

T1 sequence (P14210 32-728 limits assumed): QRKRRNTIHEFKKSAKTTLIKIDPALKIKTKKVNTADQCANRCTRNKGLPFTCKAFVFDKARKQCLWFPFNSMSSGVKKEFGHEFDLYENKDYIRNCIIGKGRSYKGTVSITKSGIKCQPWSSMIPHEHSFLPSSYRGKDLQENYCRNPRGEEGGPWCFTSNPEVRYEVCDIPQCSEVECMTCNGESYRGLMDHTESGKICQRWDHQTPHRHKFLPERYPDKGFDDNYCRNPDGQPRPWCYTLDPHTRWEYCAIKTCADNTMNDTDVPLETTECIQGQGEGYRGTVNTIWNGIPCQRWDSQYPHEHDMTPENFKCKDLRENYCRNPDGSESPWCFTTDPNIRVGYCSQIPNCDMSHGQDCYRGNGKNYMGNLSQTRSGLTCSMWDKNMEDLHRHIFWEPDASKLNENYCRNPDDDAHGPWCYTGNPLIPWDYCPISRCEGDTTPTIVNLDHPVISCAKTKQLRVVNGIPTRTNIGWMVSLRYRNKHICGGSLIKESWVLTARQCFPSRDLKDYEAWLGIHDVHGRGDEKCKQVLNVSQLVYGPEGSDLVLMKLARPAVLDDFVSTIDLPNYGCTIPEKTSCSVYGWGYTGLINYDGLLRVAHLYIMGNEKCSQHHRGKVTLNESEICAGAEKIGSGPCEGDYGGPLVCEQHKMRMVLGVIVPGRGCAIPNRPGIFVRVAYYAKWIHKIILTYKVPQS

Row | Binder | EC50 (HGF-His tag) [nM] | EC50 (VEGF 1-165 aa) [nM]
1 | DVD648 (bispecific antibody, human IgG1, kappa, DVD-Ig; HC linker long, LC linker short; vectors V1/V2) heavy: not shown light: DIQMTQSPSSLSASVGDRVTITCSASQDISNYLNWYQQKPGKAPKVLIYFTSSLHSGVPSRFSGSGSGTDFTLTISSLQPEDFATYYCQQYSTVPWTFGQGTKVEIKRTVAAPDIQMTQSPSSVSASVGDRVTITCRASQGISSWLAWYQQKPGKAPNLLIYEASSLQSGVPSRFGGSGSGTDFTLTISSLQPEDFATYYCQQANGFPWTFGQGTKVEIKRTVAAPSVFIFPPSDEQLKSGTASVVCLLNNFYPREAKVQWKVDNALQSGNSQESVTEQDSKDSTYSLSSTLTLSKADYEKHKVYACEVTHQGLSSPVTKSFNRGEC | 4.17 | 1.72
2 | DVD650 (bispecific antibody, human IgG1, kappa, DVD-Ig; HC linker long, LC linker short; vectors V1/V2) heavy: not shown light: DIQMTQSPSSLSASVGDRVTITCRASQDVSTAVAWYQQKPGKAPKLLIYSASFLYSGVPSRFSGSGSGTDFTLTISSLQPEDFATYYCQQSYTTPPTFGQGTKVEIKRTVAAPDIQMTQSPSSVSASVGDRVTITCRASQGISSWLAWYQQKPGKAPNLLIYEASSLQSGVPSRFGGSGSGTDFTLTISSLQPEDFATYYCQQANGFPWTFGQGTKVEIKRTVAAPSVFIFPPSDEQLKSGTASVVCLLNNFYPREAKVQWKVDNALQSGNSQESVTEQDSKDSTYSLSSTLTLSKADYEKHKVYACEVTHQGLSSPVTKSFNRGEC | 4.63 | 2.67
3 | DVD652 (bispecific antibody, human IgG1, kappa, DVD-Ig; N-term VD AB071 (VEGF), C-term VD AB012 (HGF); HC linker long, LC linker short; vectors V1/V2) heavy: not shown light: DIQMTQSPSSLSASVGDRVTITCRASQVIRRSLAWYQQKPGKAPKLLIYAASNLASGVPSRFSGSGSGTDFTLTISSLQPEDFATYYCQQSNTSPLTFGQGTKVEIKRTVAAPDIQMTQSPSSVSASVGDRVTITCRASQGISSWLAWYQQKPGKAPNLLIYEASSLQSGVPSRFGGSGSGTDFTLTISSLQPEDFATYYCQQANGFPWTFGQGTKVEIKRTVAAPSVFIFPPSDEQLKSGTASVVCLLNNFYPREAKVQWKVDNALQSGNSQESVTEQDSKDSTYSLSSTLTLSKADYEKHKVYACEVTHQGLSSPVTKSFNRGEC | 4.71 | 13.8
4 | DVD654 (bispecific antibody, human IgG1, kappa, DVD-Ig; HC linker short, LC linker long; vectors V1/V2) heavy: not shown light: DIQMTQSPSSLSASVGDRVTITCSASQDISNYLNWYQQKPGKAPKVLIYFTSSLHSGVPSRFSGSGSGTDFTLTISSLQPEDFATYYCQQYSTVPWTFGQGTKVEIKRTVAAPSVFIFPPDIQMTQSPSSVSASVGDRVTITCRASQGISSWLAWYQQKPGKAPNLLIYEASSLQSGVPSRFGGSGSGTDFTLTISSLQPEDFATYYCQQANGFPWTFGQGTKVEIKRTVAAPSVFIFPPSDEQLKSGTASVVCLLNNFYPREAKVQWKVDNALQSGNSQESVTEQDSKDSTYSLSSTLTLSKADYEKHKVYACEVTHQGLSSPVTKSFNRGEC | 0.91 | 3.71
5 | DVD656 (bispecific antibody, human IgG1, kappa, DVD-Ig; HC linker short, LC linker long; vectors V1/V2) heavy: not shown light: DIQMTQSPSSLSASVGDRVTITCRASQDVSTAVAWYQQKPGKAPKLLIYSASFLYSGVPSRFSGSGSGTDFTLTISSLQPEDFATYYCQQSYTTPPTFGQGTKVEIKRTVAAPSVFIFPPDIQMTQSPSSVSASVGDRVTITCRASQGISSWLAWYQQKPGKAPNLLIYEASSLQSGVPSRFGGSGSGTDFTLTISSLQPEDFATYYCQQANGFPWTFGQGTKVEIKRTVAAPSVFIFPPSDEQLKSGTASVVCLLNNFYPREAKVQWKVDNALQSGNSQESVTEQDSKDSTYSLSSTLTLSKADYEKHKVYACEVTHQGLSSPVTKSFNRGEC | 1.27 | 7.87
6 | DVD658 (bispecific antibody, human IgG1, kappa, DVD-Ig; N-term VD AB071 (VEGF), C-term VD AB012 (HGF); HC linker short, LC linker long; vectors V1/V2) heavy: not shown light: DIQMTQSPSSLSASVGDRVTITCRASQVIRRSLAWYQQKPGKAPKLLIYAASNLASGVPSRFSGSGSGTDFTLTISSLQPEDFATYYCQQSNTSPLTFGQGTKVEIKRTVAAPSVFIFPPDIQMTQSPSSVSASVGDRVTITCRASQGISSWLAWYQQKPGKAPNLLIYEASSLQSGVPSRFGGSGSGTDFTLTISSLQPEDFATYYCQQANGFPWTFGQGTKVEIKRTVAAPSVFIFPPSDEQLKSGTASVVCLLNNFYPREAKVQWKVDNALQSGNSQESVTEQDSKDSTYSLSSTLTLSKADYEKHKVYACEVTHQGLSSPVTKSFNRGEC | 0.94 | 28.7
7 | DVD660 (bispecific antibody, human IgG1, kappa, DVD-Ig; HC linker short, LC linker short; vectors V1/V2) heavy: not shown light: DIQMTQSPSSLSASVGDRVTITCSASQDISNYLNWYQQKPGKAPKVLIYFTSSLHSGVPSRFSGSGSGTDFTLTISSLQPEDFATYYCQQYSTVPWTFGQGTKVEIKRTVAAPDIQMTQSPSSLSASVGDRVTITCKASENVVSYVSWYQQKPGKAPKLLIYGASNRNTGVPSRFSGSGSGTDFTLTISSLQPEDFATYYCGQSYNYPYTFGQGTKLEIKRTVAAPSVFIFPPSDEQLKSGTASVVCLLNNFYPREAKVQWKVDNALQSGNSQESVTEQDSKDSTYSLSSTLTLSKADYEKHKVYACEVTHQGLSSPVTKSFNRGEC | 449 | 1.51
8 | DVD662 (bispecific antibody, human IgG1, kappa, DVD-Ig; HC linker short, LC linker short; vectors V1/V2) heavy: not shown light: DIQMTQSPSSLSASVGDRVTITCRASQDVSTAVAWYQQKPGKAPKLLIYSASFLYSGVPSRFSGSGSGTDFTLTISSLQPEDFATYYCQQSYTTPPTFGQGTKVEIKRTVAAPDIQMTQSPSSLSASVGDRVTITCKASENVVSYVSWYQQKPGKAPKLLIYGASNRNTGVPSRFSGSGSGTDFTLTISSLQPEDFATYYCGQSYNYPYTFGQGTKLEIKRTVAAPSVFIFPPSDEQLKSGTASVVCLLNNFYPREAKVQWKVDNALQSGNSQESVTEQDSKDSTYSLSSTLTLSKADYEKHKVYACEVTHQGLSSPVTKSFNRGEC | 214 | 70.2
9 | DVD664 (bispecific antibody, human IgG1, kappa, DVD-Ig; N-term VD AB071 (VEGF), C-term VD AB079 (HGF); HC linker short, LC linker short; vectors V1/V2) heavy: not shown light: DIQMTQSPSSLSASVGDRVTITCRASQVIRRSLAWYQQKPGKAPKLLIYAASNLASGVPSRFSGSGSGTDFTLTISSLQPEDFATYYCQQSNTSPLTFGQGTKVEIKRTVAAPDIQMTQSPSSLSASVGDRVTITCKASENVVSYVSWYQQKPGKAPKLLIYGASNRNTGVPSRFSGSGSGTDFTLTISSLQPEDFATYYCGQSYNYPYTFGQGTKLEIKRTVAAPSVFIFPPSDEQLKSGTASVVCLLNNFYPREAKVQWKVDNALQSGNSQESVTEQDSKDSTYSLSSTLTLSKADYEKHKVYACEVTHQGLSSPVTKSFNRGEC | 80.9 | 40.9
10 | DVD666 (bispecific antibody, human IgG1, kappa, DVD-Ig; HC linker long, LC linker long; vectors V1/V2) heavy: not shown light: DIQMTQSPSSLSASVGDRVTITCSASQDISNYLNWYQQKPGKAPKVLIYFTSSLHSGVPSRFSGSGSGTDFTLTISSLQPEDFATYYCQQYSTVPWTFGQGTKVEIKRTVAAPSVFIFPPDIQMTQSPSSLSASVGDRVTITCKASENVVSYVSWYQQKPGKAPKLLIYGASNRNTGVPSRFSGSGSGTDFTLTISSLQPEDFATYYCGQSYNYPYTFGQGTKLEIKRTVAAPSVFIFPPSDEQLKSGTASVVCLLNNFYPREAKVQWKVDNALQSGNSQESVTEQDSKDSTYSLSSTLTLSKADYEKHKVYACEVTHQGLSSPVTKSFNRGEC | 14.7 | 134
11 | DVD668 (bispecific antibody, human IgG1, kappa, DVD-Ig; HC linker long, LC linker long; vectors V1/V2) heavy: not shown light: DIQMTQSPSSLSASVGDRVTITCRASQDVSTAVAWYQQKPGKAPKLLIYSASFLYSGVPSRFSGSGSGTDFTLTISSLQPEDFATYYCQQSYTTPPTFGQGTKVEIKRTVAAPSVFIFPPDIQMTQSPSSLSASVGDRVTITCKASENVVSYVSWYQQKPGKAPKLLIYGASNRNTGVPSRFSGSGSGTDFTLTISSLQPEDFATYYCGQSYNYPYTFGQGTKLEIKRTVAAPSVFIFPPSDEQLKSGTASVVCLLNNFYPREAKVQWKVDNALQSGNSQESVTEQDSKDSTYSLSSTLTLSKADYEKHKVYACEVTHQGLSSPVTKSFNRGEC | 20.2 | 136
12 | DVD670 (bispecific antibody, human IgG1, kappa, DVD-Ig; N-term VD AB071 (VEGF), C-term VD AB079 (HGF); HC linker long, LC linker long; vectors V1/V2) heavy: not shown light: DIQMTQSPSSLSASVGDRVTITCRASQVIRRSLAWYQQKPGKAPKLLIYAASNLASGVPSRFSGSGSGTDFTLTISSLQPEDFATYYCQQSNTSPLTFGQGTKVEIKRTVAAPSVFIFPPDIQMTQSPSSLSASVGDRVTITCKASENVVSYVSWYQQKPGKAPKLLIYGASNRNTGVPSRFSGSGSGTDFTLTISSLQPEDFATYYCGQSYNYPYTFGQGTKLEIKRTVAAPSVFIFPPSDEQLKSGTASVVCLLNNFYPREAKVQWKVDNALQSGNSQESVTEQDSKDSTYSLSSTLTLSKADYEKHKVYACEVTHQGLSSPVTKSFNRGEC | 3.1 | 48.3
13 | DVD672 (bispecific antibody, human IgG1, kappa, DVD-Ig; HC linker long, LC linker short; vectors V1/V2) heavy: not shown light: DIQMTQSPSSLSASVGDRVTITCSASQDISNYLNWYQQKPGKAPKVLIYFTSSLHSGVPSRFSGSGSGTDFTLTISSLQPEDFATYYCQQYSTVPWTFGQGTKVEIKRTVAAPDIQMTQSPSSLSASVGDRVTITCKASENVVSYVSWYQQKPGKAPKLLIYGASNRNTGVPSRFSGSGSGTDFTLTISSLQPEDFATYYCGQSYNYPYTFGQGTKLEIKRTVAAPSVFIFPPSDEQLKSGTASVVCLLNNFYPREAKVQWKVDNALQSGNSQESVTEQDSKDSTYSLSSTLTLSKADYEKHKVYACEVTHQGLSSPVTKSFNRGEC | 22.9 | 16.1
14 | DVD674 (bispecific antibody, human IgG1, kappa, DVD-Ig; HC linker long, LC linker short; vectors V1/V2) heavy: not shown light: DIQMTQSPSSLSASVGDRVTITCRASQDVSTAVAWYQQKPGKAPKLLIYSASFLYSGVPSRFSGSGSGTDFTLTISSLQPEDFATYYCQQSYTTPPTFGQGTKVEIKRTVAAPDIQMTQSPSSLSASVGDRVTITCKASENVVSYVSWYQQKPGKAPKLLIYGASNRNTGVPSRFSGSGSGTDFTLTISSLQPEDFATYYCGQSYNYPYTFGQGTKLEIKRTVAAPSVFIFPPSDEQLKSGTASVVCLLNNFYPREAKVQWKVDNALQSGNSQESVTEQDSKDSTYSLSSTLTLSKADYEKHKVYACEVTHQGLSSPVTKSFNRGEC | 17.6 | 10.6
15 | DVD676 (bispecific antibody, human IgG1, kappa, DVD-Ig; N-term VD AB071 (VEGF), C-term VD AB079 (HGF); HC linker long, LC linker short; vectors V1/V2) heavy: not shown light: DIQMTQSPSSLSASVGDRVTITCRASQVIRRSLAWYQQKPGKAPKLLIYAASNLASGVPSRFSGSGSGTDFTLTISSLQPEDFATYYCQQSNTSPLTFGQGTKVEIKRTVAAPDIQMTQSPSSLSASVGDRVTITCKASENVVSYVSWYQQKPGKAPKLLIYGASNRNTGVPSRFSGSGSGTDFTLTISSLQPEDFATYYCGQSYNYPYTFGQGTKLEIKRTVAAPSVFIFPPSDEQLKSGTASVVCLLNNFYPREAKVQWKVDNALQSGNSQESVTEQDSKDSTYSLSSTLTLSKADYEKHKVYACEVTHQGLSSPVTKSFNRGEC | 35.8 | 130
